Reference: the supplement of paper PMC10065799, “High-throughput profiling of sequence recognition by tyrosine kinases and SH2 domains using bacterial peptide display” (eLife, 2023)

Columns and labels:
[1] = target: EPHB1 (UniProt P54762); experiment: phosphorylation enrichment, bacterial display (enrichment ratio); higher = better substrate or ligand; peptides without Tyr show the background
[2] = test system: c-Abl (mouse); experiment: as above
[3] = test system: c-Src; experiment: as above
[4] = target: Jak2 (UniProt O60674); experiment: as above
[5] = test system: AncSZ; experiment: as above
[6] = target: Hck (UniProt P08631); experiment: as above
[7] = target: EPHB2 (UniProt P29323); experiment: as above
[8] = test system: Fer (mouse); experiment: as above
[9] = target: Fes (UniProt P07332); experiment: as above
[10] = target: MERTK (UniProt Q12866); experiment: as above
[11] = target: Fyn (UniProt P06241); experiment: as above
[12] = target: FGFR1 (UniProt P11362); experiment: as above
[13] = target: FGFR3 (UniProt P22607); experiment: as above
[14] = target: SHP2-C SH2; experiment: SH2 binding enrichment of the phosphorylated peptide, bacterial display (enrichment ratio); higher = better substrate or ligand; peptides without Tyr show the background
[15] = target: c-Src SH2; experiment: as above
[16] = target: Grb2 SH2 (UniProt P62993); experiment: as above
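Throughout, for SH2 binding enrichment of the phosphorylated peptide, bacterial display: peptide library displayed on the E. coli surface as eCPX fusions, selected cells deep-sequenced, score is each peptide's frequency after selection divided by its frequency in the input.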
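Throughout, for phosphorylation enrichment, bacterial display: 11-residue human phosphosite peptides and single-mutation variants displayed on the E. coli surface, counted by deep sequencing, each peptide's frequency after selection divided by its frequency in the unselected input library; frequency after pTyr selection over input frequency; kinase dosed for 20-30% of maximal phosphorylation in three min.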

Chain of Grb2 SH2 (P62993 whole entry, looked up, the tested form may be a part): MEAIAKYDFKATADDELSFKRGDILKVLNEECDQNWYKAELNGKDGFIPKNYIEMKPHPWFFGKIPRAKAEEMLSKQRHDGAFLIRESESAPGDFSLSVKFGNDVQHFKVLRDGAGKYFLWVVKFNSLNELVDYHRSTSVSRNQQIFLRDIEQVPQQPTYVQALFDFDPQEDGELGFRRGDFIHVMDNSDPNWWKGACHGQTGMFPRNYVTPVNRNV
Chain of FGFR1 (P11362 whole entry, looked up): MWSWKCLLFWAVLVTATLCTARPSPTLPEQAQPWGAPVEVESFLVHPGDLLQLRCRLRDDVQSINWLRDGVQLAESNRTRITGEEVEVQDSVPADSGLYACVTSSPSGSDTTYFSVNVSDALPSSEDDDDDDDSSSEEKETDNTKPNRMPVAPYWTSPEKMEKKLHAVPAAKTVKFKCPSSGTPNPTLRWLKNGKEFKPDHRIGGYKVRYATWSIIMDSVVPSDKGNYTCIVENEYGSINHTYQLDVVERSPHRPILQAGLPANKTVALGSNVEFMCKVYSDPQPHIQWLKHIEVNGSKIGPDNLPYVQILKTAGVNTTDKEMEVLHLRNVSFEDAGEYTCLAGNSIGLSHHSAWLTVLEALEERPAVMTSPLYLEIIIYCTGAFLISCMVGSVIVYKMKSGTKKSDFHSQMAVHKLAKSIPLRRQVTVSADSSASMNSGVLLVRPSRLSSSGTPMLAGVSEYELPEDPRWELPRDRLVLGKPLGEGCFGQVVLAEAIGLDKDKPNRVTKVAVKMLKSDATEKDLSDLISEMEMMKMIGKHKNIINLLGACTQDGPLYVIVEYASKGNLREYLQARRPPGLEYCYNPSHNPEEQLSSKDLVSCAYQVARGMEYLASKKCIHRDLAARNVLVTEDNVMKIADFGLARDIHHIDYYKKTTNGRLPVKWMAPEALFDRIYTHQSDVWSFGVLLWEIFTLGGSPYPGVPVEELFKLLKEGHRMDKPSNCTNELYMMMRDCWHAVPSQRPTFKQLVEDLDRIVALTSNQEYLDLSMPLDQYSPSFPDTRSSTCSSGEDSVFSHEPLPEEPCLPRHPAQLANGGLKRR
Chain of EPHB2 (P29323 whole entry, looked up): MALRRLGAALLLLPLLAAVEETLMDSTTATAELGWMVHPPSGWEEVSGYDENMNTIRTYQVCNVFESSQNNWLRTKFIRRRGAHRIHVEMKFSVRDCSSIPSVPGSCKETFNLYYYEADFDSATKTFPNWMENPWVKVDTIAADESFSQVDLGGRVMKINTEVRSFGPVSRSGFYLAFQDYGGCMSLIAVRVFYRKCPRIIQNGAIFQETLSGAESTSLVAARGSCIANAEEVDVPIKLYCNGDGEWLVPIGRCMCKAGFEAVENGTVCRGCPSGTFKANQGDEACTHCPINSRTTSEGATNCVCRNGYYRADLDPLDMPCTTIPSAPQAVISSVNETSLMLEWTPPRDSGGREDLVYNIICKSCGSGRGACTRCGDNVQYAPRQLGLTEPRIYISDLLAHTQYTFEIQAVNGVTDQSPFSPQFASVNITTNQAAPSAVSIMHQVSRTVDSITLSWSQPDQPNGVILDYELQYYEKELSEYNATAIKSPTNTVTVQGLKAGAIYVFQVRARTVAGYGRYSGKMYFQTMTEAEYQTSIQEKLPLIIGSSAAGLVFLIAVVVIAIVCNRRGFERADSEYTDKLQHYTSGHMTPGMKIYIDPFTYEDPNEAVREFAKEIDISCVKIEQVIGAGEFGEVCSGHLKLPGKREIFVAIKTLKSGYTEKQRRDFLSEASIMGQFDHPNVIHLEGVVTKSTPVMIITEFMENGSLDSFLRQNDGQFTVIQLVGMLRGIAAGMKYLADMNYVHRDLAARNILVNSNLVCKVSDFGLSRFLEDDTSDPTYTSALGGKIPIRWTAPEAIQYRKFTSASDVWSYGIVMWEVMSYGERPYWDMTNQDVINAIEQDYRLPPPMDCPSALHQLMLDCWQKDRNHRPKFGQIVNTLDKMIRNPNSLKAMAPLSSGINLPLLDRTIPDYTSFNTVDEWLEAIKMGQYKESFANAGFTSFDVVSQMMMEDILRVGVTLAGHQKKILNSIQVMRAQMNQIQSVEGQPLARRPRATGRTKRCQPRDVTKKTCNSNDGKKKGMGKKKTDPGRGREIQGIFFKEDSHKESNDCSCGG
Chain of Fyn (P06241 whole entry, looked up): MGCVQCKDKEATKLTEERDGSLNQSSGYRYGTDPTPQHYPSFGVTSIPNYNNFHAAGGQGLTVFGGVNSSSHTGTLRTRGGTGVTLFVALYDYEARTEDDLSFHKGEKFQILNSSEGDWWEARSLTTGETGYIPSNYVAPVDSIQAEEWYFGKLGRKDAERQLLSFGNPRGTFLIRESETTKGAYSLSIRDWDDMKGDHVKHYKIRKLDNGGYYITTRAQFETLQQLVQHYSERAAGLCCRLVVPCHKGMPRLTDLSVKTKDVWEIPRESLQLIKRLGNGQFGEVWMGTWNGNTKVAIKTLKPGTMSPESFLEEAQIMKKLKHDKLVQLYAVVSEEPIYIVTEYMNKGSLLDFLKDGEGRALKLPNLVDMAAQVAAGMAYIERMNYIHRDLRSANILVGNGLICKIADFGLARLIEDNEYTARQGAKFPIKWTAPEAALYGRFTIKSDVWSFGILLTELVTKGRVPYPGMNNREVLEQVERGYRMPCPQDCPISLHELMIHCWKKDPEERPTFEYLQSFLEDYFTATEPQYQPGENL
Chain of Hck (P08631 whole entry, looked up): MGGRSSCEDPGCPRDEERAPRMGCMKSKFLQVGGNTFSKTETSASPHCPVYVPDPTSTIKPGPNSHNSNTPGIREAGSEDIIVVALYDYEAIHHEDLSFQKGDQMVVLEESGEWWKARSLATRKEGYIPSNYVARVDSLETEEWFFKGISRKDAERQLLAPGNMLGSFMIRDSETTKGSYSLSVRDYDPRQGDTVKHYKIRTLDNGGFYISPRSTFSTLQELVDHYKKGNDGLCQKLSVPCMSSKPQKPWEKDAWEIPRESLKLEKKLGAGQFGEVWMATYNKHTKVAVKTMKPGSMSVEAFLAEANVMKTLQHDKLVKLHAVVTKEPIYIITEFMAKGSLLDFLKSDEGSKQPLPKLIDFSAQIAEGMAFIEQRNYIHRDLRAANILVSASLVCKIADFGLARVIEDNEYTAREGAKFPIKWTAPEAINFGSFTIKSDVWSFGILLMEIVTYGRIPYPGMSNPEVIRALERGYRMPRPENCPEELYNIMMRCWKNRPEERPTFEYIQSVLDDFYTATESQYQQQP
Chain of FGFR3 (P22607 whole entry, looked up): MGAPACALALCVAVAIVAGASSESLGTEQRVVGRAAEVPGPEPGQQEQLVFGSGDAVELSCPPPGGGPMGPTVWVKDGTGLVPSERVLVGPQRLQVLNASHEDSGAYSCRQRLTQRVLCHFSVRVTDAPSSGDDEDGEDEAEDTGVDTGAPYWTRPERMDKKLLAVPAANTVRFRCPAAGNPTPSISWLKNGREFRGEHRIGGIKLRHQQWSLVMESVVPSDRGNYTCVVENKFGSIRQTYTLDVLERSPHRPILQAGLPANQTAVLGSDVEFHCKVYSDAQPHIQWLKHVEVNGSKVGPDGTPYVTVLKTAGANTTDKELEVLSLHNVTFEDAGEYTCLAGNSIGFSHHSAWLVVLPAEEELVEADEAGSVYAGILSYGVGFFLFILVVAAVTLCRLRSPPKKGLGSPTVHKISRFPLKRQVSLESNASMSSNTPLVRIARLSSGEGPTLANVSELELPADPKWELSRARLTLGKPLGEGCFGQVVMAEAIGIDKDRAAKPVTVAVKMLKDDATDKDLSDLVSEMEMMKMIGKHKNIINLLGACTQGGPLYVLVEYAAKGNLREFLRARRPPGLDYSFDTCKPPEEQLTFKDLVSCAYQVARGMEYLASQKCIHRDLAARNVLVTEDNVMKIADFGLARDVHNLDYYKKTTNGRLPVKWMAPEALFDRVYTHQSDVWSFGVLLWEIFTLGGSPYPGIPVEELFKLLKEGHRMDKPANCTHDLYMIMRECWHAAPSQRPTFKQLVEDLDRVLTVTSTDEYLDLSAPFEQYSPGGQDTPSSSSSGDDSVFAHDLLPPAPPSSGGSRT
Chain of Fes (P07332 whole entry, looked up): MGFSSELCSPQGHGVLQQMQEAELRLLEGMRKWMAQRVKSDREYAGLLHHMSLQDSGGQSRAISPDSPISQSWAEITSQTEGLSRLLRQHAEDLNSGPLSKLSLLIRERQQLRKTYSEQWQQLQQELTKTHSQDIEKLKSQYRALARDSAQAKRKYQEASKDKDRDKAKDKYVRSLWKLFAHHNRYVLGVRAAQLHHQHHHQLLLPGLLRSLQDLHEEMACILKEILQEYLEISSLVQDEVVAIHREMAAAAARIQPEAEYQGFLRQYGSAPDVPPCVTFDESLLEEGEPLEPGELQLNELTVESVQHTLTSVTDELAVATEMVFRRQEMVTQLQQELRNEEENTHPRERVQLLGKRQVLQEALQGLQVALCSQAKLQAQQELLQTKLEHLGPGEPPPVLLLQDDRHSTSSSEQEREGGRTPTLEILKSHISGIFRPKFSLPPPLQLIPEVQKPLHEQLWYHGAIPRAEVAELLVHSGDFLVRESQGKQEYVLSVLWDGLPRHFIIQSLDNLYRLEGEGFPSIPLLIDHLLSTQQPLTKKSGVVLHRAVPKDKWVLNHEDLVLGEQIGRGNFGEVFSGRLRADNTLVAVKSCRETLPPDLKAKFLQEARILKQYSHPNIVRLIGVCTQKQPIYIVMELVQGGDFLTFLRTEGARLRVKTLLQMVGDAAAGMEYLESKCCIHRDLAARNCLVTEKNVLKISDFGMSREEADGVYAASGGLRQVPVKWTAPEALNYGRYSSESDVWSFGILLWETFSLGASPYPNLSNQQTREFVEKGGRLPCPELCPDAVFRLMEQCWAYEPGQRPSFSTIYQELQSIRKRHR

Sequence | phosphorylation enrichment [1] | phosphorylation enrichment [2] | phosphorylation enrichment [3] | phosphorylation enrichment [4] | phosphorylation enrichment [5] | phosphorylation enrichment [6] | phosphorylation enrichment [7] | phosphorylation enrichment [8] | phosphorylation enrichment [9] | phosphorylation enrichment [10] | phosphorylation enrichment [11] | phosphorylation enrichment [12] | phosphorylation enrichment [13] | SH2 binding enrichment [14] | SH2 binding enrichment [15] | SH2 binding enrichment [16]
FETDFYQKGGK [INSR_Y1190_R1191Q_YF] | 0.834 | 0.523 | 0.427 | 0.526 | 0.633 | 0.472 | 0.355 | 0.47 | 0.88 | 0.421 | 0.519 | 0.411 | 0.503 | 0.62 | 0.564 | 0.797
IIGNGYFFHVF [MYBPC3_Y1135_R1138H_YF] | 0.569 | 0.776 | 0.34 | 1.07 | 1.11 | 0.314 | 0.547 | 0.398 | 1.09 | 0.254 | 0.313 | 0.4 | 0.699 | 0.74 | 0.484 | 0.848
GFEEAYSVSKK [PAFAH1B1_Y28_F31S_YF] | 0.355 | 0.464 | 0.65 | 0.853 | 0.697 | 0.487 | 0.353 | 0.39 | 0.764 | 0.377 | 0.403 | 0.374 | 0.492 | 0.688 | 0.505 | 1.01
PSQRPYVYYYS [PTEN_Y174_R173P] | 0.652 | 1 | 2.78 | 2.58 | 1.44 | 1.02 | 0.676 | 0.64 | 1.09 | 7.73 | 1.43 | 4.69 | 3.08 | 2.81 | 3.29 | 1.61
IGRHAYGDQFR [IDH1_Y135_YF] | 0.367 | 0.516 | 0.407 | 0.487 | 0.449 | 0.341 | 0.391 | 0.339 | 0.507 | 0.296 | 0.381 | 0.331 | 0.383 | 0.633 | 0.817 | 0.996
PSALGYSPSLR [LLGL2_Y40] | 0.769 | 0.764 | 0.692 | 0.908 | 0.669 | 0.472 | 0.628 | 0.512 | 0.887 | 0.712 | 0.75 | 0.404 | 0.46 | 1.04 | 0.493 | 0.958
LLILEYAKYGS [RET_Y806_V804L] | 0.773 | 1.02 | 0.764 | 1.5 | 1.32 | 0.486 | 0.649 | 0.58 | 1.27 | 0.392 | 0.587 | 0.547 | 0.869 | 1.26 | 1.31 | 1.37
LAAAKYKLNVD [SMARCA2_Y1190] | 0.426 | 0.593 | 0.489 | 0.42 | 0.444 | 0.181 | 0.336 | 0.52 | 0.766 | 0.309 | 0.262 | 0.322 | 0.556 | 1.17 | 0.386 | 0.812
NACGLYFKLHN [GATA2_Y376_YF] | 0.552 | 0.784 | 0.358 | 1.21 | 1.26 | 0.491 | 0.496 | 0.425 | 0.979 | 0.466 | 0.427 | 0.437 | 0.722 | 0.686 | 0.449 | 0.899
CEQELYSQLVF [WAS_Y102_W97C_YF] | 1.84 | 0.987 | 5.87 | 1.24 | 1.59 | 6.76 | 2.2 | 10.7 | 1.44 | 6.07 | 6.89 | 1.66 | 1.79 | 0.553 | 0.515 | 0.933
SQDSAYHSGIQ [FLG_Y3940] | 0.532 | 0.506 | 0.386 | 0.492 | 0.557 | 0.678 | 0.366 | 0.404 | 0.614 | 0.489 | 0.421 | 0.4 | 0.512 | 0.544 | 0.529 | 0.899
CLNAIYQNNLT [GSR_Y158_R153C] | 0.622 | 0.759 | 1.41 | 0.744 | 0.991 | 1.53 | 0.636 | 3.44 | 0.996 | 0.563 | 0.995 | 0.479 | 0.722 | 0.67 | 0.807 | 4.11
KRIKSYNQEND [RPGRIP1L_Y448_L447S] | 0.442 | 0.454 | 0.409 | 0.466 | 0.436 | 0.33 | 0.341 | 0.416 | 0.53 | 0.43 | 0.358 | 0.396 | 0.395 | 0.681 | 0.503 | 0.711
LLSISYVGCSL [ADGRD1_Y571_S567L] | 0.888 | 1.45 | 0.69 | 1.77 | 1.48 | 0.824 | 0.823 | 1.01 | 2.03 | 0.761 | 0.98 | 1.1 | 1.43 | 0.571 | 0.54 | 0.96
TFEFKYPEGSS [TGM4_Y440_YF] | 0.437 | 0.734 | 0.499 | 0.765 | 1.02 | 0.617 | 0.583 | 0.512 | 1.18 | 0.497 | 0.55 | 0.518 | 0.827 | 0.463 | 0.506 | 0.804
KEKLCYVALDF [ACTA1_Y220] | 0.737 | 0.877 | 1.81 | 2.68 | 1.26 | 1.27 | 0.676 | 1.29 | 1.17 | 4.72 | 1.03 | 2.4 | 2.15 | 1.04 | 0.46 | 0.727
DPFHVYIKNHV [KCNE3_Y95_R99H_YF] | 0.671 | 0.915 | 0.403 | 1.2 | 1.22 | 0.519 | 0.735 | 0.585 | 1.32 | 0.354 | 0.382 | 0.469 | 0.918 | 0.839 | 0.643 | 0.978

Sequence | phosphorylation enrichment [1] | phosphorylation enrichment [2] | phosphorylation enrichment [3] | phosphorylation enrichment [4] | phosphorylation enrichment [5] | phosphorylation enrichment [6] | phosphorylation enrichment [7] | phosphorylation enrichment [8] | phosphorylation enrichment [9] | phosphorylation enrichment [10] | phosphorylation enrichment [11] | phosphorylation enrichment [12] | phosphorylation enrichment [13] | SH2 binding enrichment [14] | SH2 binding enrichment [15] | SH2 binding enrichment [16]
ASNNPYFRDQA [RPGRIP1_Y846] | 0.396 | 0.537 | 0.512 | 0.547 | 0.605 | 0.449 | 0.357 | 0.434 | 0.694 | 0.416 | 0.5 | 0.443 | 0.656 | 0.689 | 0.51 | 0.89
PTTKTYFPHFF [HBA1_Y43_D48Y_YF] | 0.547 | 0.453 | 0.471 | 0.569 | 0.681 | 0.672 | 0.716 | 0.864 | 0.584 | 0.607 | 0.723 | 0.824 | 0.696 | 1.01 | 0.683 | 1.23
CKRQFYLFKGK [RSPO4_Y112_YF] | 0.385 | 0.497 | 0.377 | 0.745 | 0.863 | 0.4 | 0.546 | 0.403 | 1.01 | 0.489 | 0.431 | 0.446 | 0.591 | 1.05 | 1.07 | 1.28
VGGRIYIDDGL [PKLR_Y218] | 0.493 | 0.727 | 0.493 | 0.91 | 0.742 | 0.463 | 0.431 | 0.681 | 0.885 | 0.383 | 0.459 | 0.575 | 0.539 | 0.778 | 0.45 | 0.909
EEQKKYYNAMK [SCN5A_Y1494] | 0.451 | 0.525 | 0.384 | 0.674 | 0.67 | 0.392 | 0.492 | 0.377 | 0.771 | 0.355 | 0.458 | 0.509 | 0.535 | 0.603 | 0.639 | 1.25
QKNVSYVSTVS [TASOR_Y1043] | 0.285 | 0.38 | 0.335 | 0.401 | 0.815 | 0.47 | 1.75 | 0.403 | 0.514 | 0.509 | 0.532 | 0.405 | 0.506 | 0.891 | 0.26 | 0.679
DKITQYVEEVK [STX2_Y49] | 0.507 | 0.698 | 0.425 | 0.876 | 1.11 | 0.421 | 0.581 | 0.479 | 1.23 | 0.505 | 0.509 | 0.552 | 0.78 | 0.752 | 0.555 | 0.918
EGELRYMHSRV [ABCD1_Y281_K276E] | 0.516 | 0.519 | 0.373 | 0.86 | 0.688 | 0.34 | 0.439 | 0.395 | 0.689 | 0.35 | 0.507 | 0.428 | 0.485 | 0.513 | 0.432 | 0.677
VLPIDYYFPPQ [AR_Y552] | 3.48 | 1.06 | 1.28 | 6.26 | 4.75 | 0.869 | 3.36 | 0.694 | 1.08 | 2.47 | 0.687 | 15.4 | 12.6 | 0.85 | 1.03 | 0.962
LSSLAYSGKDA [FXN_Y205] | 0.819 | 0.85 | 0.47 | 0.75 | 0.859 | 0.579 | 0.702 | 0.615 | 0.703 | 0.307 | 0.809 | 0.66 | 0.671 | 0.885 | 0.59 | 0.683
TVEDHYFEGGI [TKT_Y563_YF] | 0.726 | 0.798 | 0.472 | 0.776 | 1.1 | 0.497 | 0.625 | 0.559 | 1.05 | 0.444 | 0.519 | 0.762 | 1.03 | 0.805 | 0.391 | 0.814
SIKDKYVTAFF [KCNH2_Y611_L615F_YF] | 0.363 | 0.635 | 0.372 | 0.526 | 0.582 | 0.4 | 0.44 | 0.483 | 0.731 | 0.369 | 0.399 | 0.403 | 0.489 | 0.848 | 0.589 | 1.04
ARGTRYRYVSQ [UCN3_Y95] | 0.39 | 0.608 | 0.572 | 0.437 | 0.534 | 0.469 | 0.461 | 0.493 | 0.637 | 0.529 | 0.492 | 0.42 | 0.483 | 0.602 | 0.479 | 0.789
PLLLSYYLIKW [NUP160_Y773] | 1.14 | 1.2 | 0.854 | 4.49 | 1.33 | 0.628 | 0.947 | 0.633 | 1.83 | 1.68 | 0.358 | 4.29 | 3.73 | 1.45 | 0.966 | 1.29
CGQDPYIRELG [UROS_Y19] | 0.674 | 0.877 | 0.433 | 0.971 | 1.05 | 0.569 | 0.53 | 0.534 | 1.27 | 0.427 | 0.535 | 0.497 | 0.707 | 0.492 | 0.563 | 0.731
ALTDNYMYVVI [HAGH_Y61_L64V] | 12.9 | 0.952 | 1.12 | 2.65 | 1.92 | 1.52 | 13.1 | 7.79 | 1.42 | 4.21 | 1.04 | 11.1 | 9.14 | 0.767 | 0.607 | 0.783
